As usually defined, the stoichiometry N is a count of units in the complex or per binding partner.

For 2 substances, stoichiometry N results are on record in paper doi:10.64898/2025.12.07.692841.

Assay in all cases: crystal structure
For test [1], the target named is PII-nitrogen regulatory protein NifI2 from Methanocaldococcus infernus (Methanocaldococcus infernus strain DSM 11812).
For test [2] the target is unchanged. The source holds these as a separate data set.
Test [3] deals with nitrogenase reductase NifH (dimer) from Methanocaldococcus infernus (Methanocaldococcus infernus strain DSM 11812).

Where two headings read alike, the source gives them in different places.

As to “PII-nitrogen regulatory protein NifI2 from Methanocaldococcus infernus (natural protein)”, the stoichiometry N in test [1] and in test [2] was 2 in each case.
“nitrogenase reductase NifH (dimer) from Methanocaldococcus infernus (enzyme)” gave a stoichiometry N in test [3] of 2.
